Tested on: MS2 coat protein
Assay: apparent KD of MS2 coat protein; designed switch direction (-1 OFF switch, 1 ON switch): -1; higher = weaker reporter binding
How it was run: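 Designed RNA switches with common flanks were transcribed on Illumina chips by stalled E. coli RNA polymerase and titrated with SNAP-549-labelled MS2 coat protein, from 0.7 or 1.5 nM doubling to 3 µM, in Tris-HCl pH 7.5 buffer with KCl, MgCl2, BSA, DTT, tRNA and Tween-20. Steps lasted 0.8–1.5 h (lowest) to 10–20 min (highest). Titrations ran without input, with 200 uM small-molecule ligand, or with an oligonucleotide input. Normalised cluster fluorescence was curve-fitted, and apparent KD is the per-design median over clusters.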

[1] = input ligand: microRNA oligo, concentration not stated
[2] = Eterna round: R95, input ligand: FMN 200 uM
[3] = Eterna round: R95, input ligand: microRNA oligo, concentration not stated
[4] = Eterna round: R95, input ligand: none

UUUUUUGUAGUGAGGAUAUCGUUGAGGAUGUGGAUCGAGAAGGCACAUGAGGAUCACCCAUGUUAGAUGUGGUU [JR_BMOE4_Sub083] (Eterna round: R96, puzzle: Brourd's mod of Exclusion 4)
apparent KD of MS2 coat protein (input ligand: FMN 200 uM): 363 nM | apparent KD of MS2 coat protein [1]: 134 nM | apparent KD of MS2 coat protein (input ligand: none): 166 nM

AGUAGGAGAGGAUAUACGAAGUCAAAAGACUUCGAUCCUCAACAUGAGGAUCACCCAUGUAGAAGGCUCCUACA [Omei Ex2 BD A1] (Eterna round: R97, puzzle: Exclusion 2)
apparent KD of MS2 coat protein (input ligand: FMN 200 uM): 166 nM | apparent KD of MS2 coat protein (input ligand: none): 154 nM

UCGACGUAAGGAUAUAUAAGGAACGAAGUAAGUUGUAGAAAAUAGAAGGUACAUGAGGAUCACCCAUGUUAAGA [JR_Exclu4_Sub061] (puzzle: Exclusion 4)
apparent KD of MS2 coat protein [2]: 19.4 nM | apparent KD of MS2 coat protein [3]: 19.6 nM | apparent KD of MS2 coat protein [4]: 18.9 nM

GUUCUGACAGGAUAUACAUGAGGAUCACCCAUGUGCCCUUAGAGAUGCAAAGCAUCUUGUAGAAGGGUCUGAAC [Omei Ex3 Model Bachelor's Dilema v27] (Eterna round: R97, puzzle: Exclusion 3)
apparent KD of MS2 coat protein (input ligand: FMN 200 uM): 42.1 nM | apparent KD of MS2 coat protein (input ligand: none): 37.6 nM

GAUUAAUGCAAGGAUAUGCUAUUAUUUUAUUUUGCAGAAGGUGCAACAUGAGGAUCACCCAUGUUGGAGGGUAU [JR_E6_Sub026] (puzzle: Exclusion 6)
apparent KD of MS2 coat protein [3]: 17.4 nM

CGGUGUAGAGGAUAUACGUGAAUAUUAUUAGAUAAUAAUUUACAUGAGGAUCACCCAUGUAGAAGGCUAUAGCG [JR_Ex2_Sub083] (Eterna round: R97, puzzle: Exclusion 2)
apparent KD of MS2 coat protein (input ligand: FMN 200 uM): 24.9 nM | apparent KD of MS2 coat protein (input ligand: none): 20.1 nM

GCGCAAACGCCAAAAGGCGAAACAACAUGAGGAUCACCCAUGUAGGAUAUCGAUUGCUUUGCAGUCGAGAAGGACAUGAUGCGC [JL ENG3 3.80 Mod 2] (Eterna round: R96, puzzle: Exclusion NG 3)
apparent KD of MS2 coat protein (input ligand: FMN 200 uM): 43.9 nM | apparent KD of MS2 coat protein [1]: 18.5 nM | apparent KD of MS2 coat protein (input ligand: none): 20.8 nM

AGGUAACAUGAGGAUCACCCAUGUCAGGAUAUCAGUAAGAUGAGUAUAGAAUAGAGUAUGAGAAGGGACUAUAU [Excluse me! 24 - Jieux - Exclusion 1] (puzzle: Exclusion 1)
apparent KD of MS2 coat protein [3]: 30.4 nM

GAAUGCAAGUAAAGAUCUUACAUGAGGAUCACCCAUGUGCUCGUCUUAUAAAGUACUAUCACGAAAGUGAUAGUACA [Mat - Sensor v3 - turn-off var 1 - Eli Mod - D90] (puzzle: Sensor v3, turn-off variant 1)
apparent KD of MS2 coat protein [2]: 16.3 nM | apparent KD of MS2 coat protein [3]: 84.1 nM | apparent KD of MS2 coat protein [4]: 17.4 nM

GGAUCGAGUGUGAGGAUAUACCACUGGAUACAGUGGUAGAAGGCACAUGAGGAUCACCCAUGUCCUUACGAUCC [Fiskers BMX 4 - 46] (puzzle: Brourd's mod of Exclusion 4)
apparent KD of MS2 coat protein [3]: 66 nM

AAAUUGGUAGAGGAUAUCGUACAGGAAACGAUGCGAGAAGGCUGCACAUGAGGAUCACCCAUGUUCAGUUGCGA [EX6 #41] (Eterna round: R97, puzzle: Exclusion 6)
apparent KD of MS2 coat protein (input ligand: FMN 200 uM): 17.9 nM | apparent KD of MS2 coat protein (input ligand: none): 17.6 nM

UUGUAAUGAUUAGGAUAUUAUUAAUAGAACUUUAUGAUAUACAUGAGGAUCACCCAUGUUACUUAUAAGAAGGAAUCGUAUUAU [JR_ExcNG2_Sub092] (Eterna round: R96, puzzle: Exclusion NG 2)
apparent KD of MS2 coat protein [1]: 15.7 nM

GACUAAAUGUGGUUUGGUUACAUGAGGAUCACCCAUGUUGGUCUAAGAACAUGUCUUUUGUACGCUUGUCUUAUAUA [JR_SV3TOV1_Sub067] (puzzle: Sensor v3, turn-off variant 1)
apparent KD of MS2 coat protein [2]: 630 nM | apparent KD of MS2 coat protein [3]: 324 nM | apparent KD of MS2 coat protein [4]: 896 nM

GGAGCAAGUGUCAGGAUAUCGUGGUCGAUAGAUCACGAGAAGGGACAUGAGGAUCACCCAUGUGCCUCAGCUCC [Mat - Exclusion 4 - Eli Mod - D60] (Eterna round: R97, puzzle: Brourd's mod of Exclusion 4)
apparent KD of MS2 coat protein (input ligand: FMN 200 uM): 736 nM | apparent KD of MS2 coat protein (input ligand: none): 214 nM
